Reference: patent US9217011B2, “Non-natural proteinaceous scaffold made of three non-covalently associated peptides” (Complix NV, priority 2007, dated 2015)
Read-outs that look alike come from different tables or passages of the source.

Format: physicochemical
Details: for reversibility of thermal unfolding (up and down scan): CD signal as a function of temperature, about 1 degree Celsius per minute; for alpha-helical secondary structure from CD spectrum: 292 microM, pH 7.2
Experimental: The said synthesized peptide was dissolved at a concentration of 292 microM in 20 mM phosphate buffer (PBS), 150 mM NaCl, pH 7.2. The CD spectra were measured between […], at 5 and 90 degrees Celsius (FIG. 3).
To analyse whether the temperature-induced transition between helical and nonhelical states was reversible, a forward (up) and backward (down) thermal scan was performed on the same sample, by recording the CD signal at […] as a function of temperature at a scanning rate of about 1 degree Celsius per minute (FIG. 4).
It was further analyzed whether the thermal unfolding curve of FIG. 4 conformed to the thermodynamic equations describing the equilibrium folding/unfolding reaction between three molecules free (monomeric) peptide and one entity of folded (trimeric) complex. This reaction is generally written as 3 peptide <=> peptide3
[formula] [formula] [formula] and • T≡the temperature, in degrees Kelvin, of the sample • θ(T)≡the CD-signal [theta]222 nm, in deg cm^2 dmol^−1, as a function of T • θM(T)≡the CD-signal for 100% free (monomeric) peptide as a function of T • θT(T)≡the CD-signal for 100% associated (trimeric) peptide as a function of T • Tt≡the transition temperature, where 50% of the total peptide concentration is associated • ΔHt≡the enthalpy difference, in kJ per mole peptide, between mono- and trimeric states • ΔCp≡the heat capacity difference, in J mol^−1 K^−1, between mono- and trimeric states • R≡the ideal (universal) gas constant≡8.31 J mol^−1 K^−1
FIG. 5 represents fitting of a theoretic equation for trimeric association to experimental data. The experimental data are taken from FIG. 4, curve labeled “UP”. The theoretic equations used are listed supra. The fitted parameters (fitting results) are listed at the right in FIG. 5. “Transit. T” corresponds to Tt, but is expressed here in degrees Celsius. The parameter “delta Cp” was kept constant at 3.0 kJ mol^−1 K^−1. The parameters “thetaM(T)” and “thetaT(T)” were treated as linear functions of T, resulting in the white straight lines described by the respective offsets and slopes indicated at the right in the figure. “RMS Resid.” refers to the root-mean-square of the differences between experimental and theoretic data points. The fitted (theoretic) curve itself is plotted in white on the figure and coincides over the entire temperature range with the experimental data points shown in black.

| Substance | thermal stability (in words) | reversibility of thermal unfolding (up and down scan) | temperature up to which the peptide did not quantitatively unfold (thermal CD scan) [degrees Celsius] | estimated transition temperature (thermal denaturation curve, same conditions as Example 3 (292 microM, 20 mM phosphate buffer, 150 mM NaCl, pH 7.2), transition incomplete) | alpha-helical secondary structure from CD spectrum (5 degrees Celsius) | alpha-helical secondary structure from CD spectrum (90 degrees Celsius) |
| --- | --- | --- | --- | --- | --- | --- |
| Ac-MSIEEIQKQIAAIQKQIAAIQKQIYRMTP-NH2 [Q2aI] | extremely thermostable | full reversibility | ≥ 95 | around 97 degrees Celsius |  |  |
| Ac-MSIEEIQKQQAAIQKQIAAIQKQIYRMTP-NH2 [Q2a] | moderately stable | up and down scans almost perfectly coincided |  |  | high alpha-helical secondary structure content | greatly, but not completely, lost |
